In US7727960B2, “C5a receptor antagonists” (Jerini AG, priority 2003, dated 2010):
Like-named read-outs stand apart in the source and are kept apart here. Positions of bridges follow the written chain, without caps; N, C: chain ends. Non-standard residues stand in square brackets, D forms with d. Residues, ends and D or L forms follow the SMILES beside them. No end group written: not given here. Phe(4-NH2) = Nc1ccc(C[C@H](N)C(=O)O)cc1; NEtPhe = CCN[C@@H](Cc1ccccc1)C(=O)O; Hyp = O=C(O)[C@@H]1C[C@@H](O)CN1; Cha = N[C@@H](CC1CCCCC1)C(=O)O; dCha = N[C@H](CC1CCCCC1)C(=O)O; AllylGly = C=CC[C@H](N)C(=O)O; Nle = CCCC[C@H](N)C(=O)O; Orn = NCCC[C@H](N)C(=O)O; dNMeA = CN[C@H](C)C(=O)O

Columns and labels:
human C5aR (CD88) [1] = target: T1, human C5aR (CD88) (Homo sapiens, UniProt P21730); assay: Determination of the IC50 value in an enzyme release assay (functional assay, antagonistic activity); assay type: cell-based
T1 construct: expressed in transfected cells; host or cells: rat basophilic leukemia cells (RBL)
T1 sequence (P21730 1-350): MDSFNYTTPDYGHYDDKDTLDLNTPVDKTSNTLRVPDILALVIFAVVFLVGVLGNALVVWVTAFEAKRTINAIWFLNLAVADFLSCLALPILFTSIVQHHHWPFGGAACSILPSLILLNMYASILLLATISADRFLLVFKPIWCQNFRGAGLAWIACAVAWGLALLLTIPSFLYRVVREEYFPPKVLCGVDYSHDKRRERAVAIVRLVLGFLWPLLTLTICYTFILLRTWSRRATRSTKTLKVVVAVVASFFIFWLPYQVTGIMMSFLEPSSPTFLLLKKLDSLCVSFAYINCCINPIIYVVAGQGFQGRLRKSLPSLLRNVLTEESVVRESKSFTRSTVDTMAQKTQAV

[2] = Solubility determination for selected C5aR-antagonists; assay type: physicochemical; settings: for Solubility in 20 mM HEPES pH 7.4: 20 mM HEPES pH 7.4, 24 h at RT; for solubility: aqueous HEPES buffer (pH 7.4)
Description: Solubility of compounds was determined by the following procedure: 20 μl of a 10 mM stock solution (in DMSO) of the compound were diluted in 980 μl of the solvent to be tested. After incubation for 24 h at RT under shaking the samples are centrifuged at 11.000 rpm in an Eppendorf centrifuge. The supematant is determined by photometry. […] Therefor the compound was suspended at 10 mg/ml in the solvent systems of choice. The undissolved part was removed by centrifugation after 24 h. The UV-absorption of the supernatant was measured and compared to a respective reference value 60% MeOH).

human C5aR (CD88) [3] = target: T1, human C5aR (CD88); assay: Determination of EC50 values in an enzyme release assay (agonistic activity, no C5a added); assay type: cell-based; settings: cellular assay, up to a concentration of at least 1430 nM
Description: The determination of the EC50 value was performed in a way similar to the procedure described in example 11, with the only exception that 30 μl of the compound to be tested were mixed with 75 μl of the cell suspension described in example 11. There was no preincubation or addition of C5a for stimulation of the enzyme release.

C5aR = target: T2, C5aR (Homo sapiens, UniProt P21730); settings: PMN membranes; read-out: IC50 for the binding (WO 90/09162); cited from earlier work
T2 construct: derived from measurements with isolated membranes from polymorphonuclear neutrophilic granulocytes (PMN membranes); host or cells: isolated membranes of polymorphonuclear neutrophilic granulocytes (PMN membranes)
T2 sequence (P21730 1-350): T1 sequence (P21730 1-350)

human C5aR (CD88) [4] = target: T3, human C5aR (CD88) (human, UniProt P21730 1-350); assay: cell-based or functional assay
T3 sequence (looked up): T1 sequence (P21730 1-350)

human C5aR (CD88) [5] = target: T3, human C5aR (CD88); assay: cell-based or functional assay; remark: listed apart in the source
human C5aR (CD88) [6] = target: T3, human C5aR (CD88); assay: cell-based or functional assay; remark: listed apart in the source
[7] = noteworthy = IC50 of less than 200 nM in the functional assay

Molecule: CC(=O)N[C@@H](Cc1ccccc1)C(=O)N[C@H]1CCCNC(=O)[C@H](Cc2ccccc2)NC(=O)[C@H](Cc2c[nH]c3ccccc23)NC(=O)[C@@H](CC2CCCCC2)NC(=O)[C@@H]2C[C@@H](O)CN2C1=O [Compound 2, Ac-Phe-[Orn-Hyp-cha-Trp-Phe]] (Ac-F[Orn][Hyp][dCha]WF; lactam 2-C)
- inhibitory activity (in words) (human C5aR (CD88) [1]): noteworthy inhibitory activity
- Solubility in 20 mM HEPES pH 7.4 [2]: 13 % of 200 μM
- solubility [2]: 13%
- agonistic activity (in words) (human C5aR (CD88) [3]): pure antagonists

Molecule: CCCC[C@@H]1NC(=O)[C@H](Cc2c[nH]c3ccccc23)NC(=O)[C@@H](CC2CCCCC2)NC(=O)[C@@H]2CCCN2C(=O)[C@@H](NC(=O)[C@@H](N)Cc2ccccc2)CCCNC1=O [Compound 42, H-Phe-[Orn-Pro-cha-Trp-Nle]] (H-F[Orn]P[dCha]W[Nle]; lactam 2-C)
- inhibitory activity (in words) (human C5aR (CD88) [1]; [7]): noteworthy inhibitory activity
- Solubility in 20 mM HEPES pH 7.4 [2]: 45 % of 200 μM
- agonistic activity (in words) (human C5aR (CD88) [3]): pure antagonists

Molecule: (N-Ethyl)Phe-Lys-Ala-Cha-Ala-Leu-N-Methyl(D)ala-Arg-OH ([NEtPhe]KA[Cha]AL[dNMeA]R-OH; N-terminus assumed; SMILES CCN[C@@H](Cc1ccccc1)C(=O)N[C@@H](CCCCN)C(=O)N[C@@H](C)C(=O)N[C@@H](CC1CCCCC1)C(=O)N[C@@H](C)C(=O)N[C@@H](CC(C)C)C(=O)N(C)[C@H](C)C(=O)N[C@@H](CCCNC(=N)N)C(=O)O)
- IC50 (C5aR): 11 nM

Molecule: CC(=O)N[C@@H](Cc1ccccc1)C(=O)N[C@H]1CCCNC(=O)[C@H](Cc2ccccc2)NC(=O)[C@H](Cc2c[nH]c3ccccc23)NC(=O)[C@@H](CC2CCCCC2)NC(=O)[C@@H]2CCCN2C1=O [Compound 1, Ac-Phe-[Orn-Pro-cha-Trp-Phe]] (Ac-F[Orn]P[dCha]WF; lactam 2-C)
- IC50-value compared to compound 40 (in words) (human C5aR (CD88) [1]; arginine replaced by hydrophobic substitutions): without a significant increase of the IC50-value
- inhibitory activity (in words) (human C5aR (CD88) [1]; [7]): noteworthy inhibitory activity
- Solubility in 20 mM HEPES pH 7.4 [2]: 8 % of 200 μM
- solubility [2]: 8%
- agonistic activity (in words) (human C5aR (CD88) [3]): pure antagonists

Molecule: CCCC[C@@H]1NC(=O)[C@H](Cc2c[nH]c3ccccc23)NC(=O)[C@@H](CC2CCCCC2)NC(=O)[C@@H]2CCCN2C(=O)[C@@H](NC(=O)[C@H](Cc2ccccc2)NC(=O)[C@H](CCCCN)NC(C)=O)CCCNC1=O [Compound 43, Ac-Lys-Phe-[Orn-Pro-cha-Trp-Nle]] (Ac-KF[Orn]P[dCha]W[Nle]; lactam 3-C)
- inhibitory activity (in words) (human C5aR (CD88) [1]; [7]): noteworthy inhibitory activity
- Solubility in 20 mM HEPES pH 7.4 [2]: 93 % of 200 μM
- agonistic activity (in words) (human C5aR (CD88) [3]): pure antagonists

B1: HOCH2(CHOH)4-C═N-O-CH2-CO-Phe-[Orn-Pro-cha-Trp-Nle] (peptide)
peptide: {HOCH2(CHOH)4‑C═N‑O‑CH2‑CO}-F[Orn]P[dCha]W[Nle]
modifications: lactam 2-C
- IC50 activity group, enzyme release assay (human C5aR (CD88) [4]): ≤ 200 nM
- EC50, agonistic activity, enzyme release assay (human C5aR (CD88) [5]): > 1430 nM

B2: H-Phe-[Orn-Pro-cha-Trp-Nle] (peptide)
peptide: H-F[Orn]P[dCha]W[Nle]
modifications: lactam 2-C; not fully specified; printed as H-Phe-[Orn-Pro-cha-Trp-Nle]
- EC50, agonistic activity, enzyme release assay (human C5aR (CD88) [5]): > 1430 nM

B3: Ac-Phe-[Orn-Pro-cha-Trp-Lys] (peptide)
peptide: Ac-F[Orn]P[dCha]WK
modifications: lactam (positions not given here); not fully specified (bridges); printed as Ac-Phe-[Orn-Pro-cha-Trp-Lys]
- IC50, enzyme release assay (human C5aR (CD88) [6]): 8700 nM
- IC50 activity group, enzyme release assay (human C5aR (CD88) [4]): > 2000 nM

B4: Ac-Ala-[Orn-Pro-cha-Trp-Arg] (peptide)
peptide: Ac-A[Orn]P[dCha]WR
modifications: lactam 2-C
SMILES: CC(=O)N[C@@H](C)C(=O)N[C@H]1CCCNC(=O)[C@H](CCCNC(=N)N)NC(=O)[C@H](Cc2c[nH]c3ccccc23)NC(=O)[C@@H](CC2CCCCC2)NC(=O)[C@@H]2CCCN2C1=O
- IC50, functional assay (human C5aR (CD88) [6]): > 30000 nM
- IC50 activity group, enzyme release assay (human C5aR (CD88) [4]): > 2000 nM

B5: Ac-Phe-[Orn-Pro-cha-Trp-Nle] (peptide)
peptide: Ac-F[Orn]P[dCha]W[Nle]
modifications: lactam (positions not given here); not fully specified (bridges); printed as Ac-Phe-[Orn-Pro-cha-Trp-Nle]
- IC50 activity group, enzyme release assay (human C5aR (CD88) [4]): ≤ 50 nM
- EC50, agonistic activity, enzyme release assay (human C5aR (CD88) [5]): > 1430 nM

B6: Ac-Phe-[Orn-Pro-cha-Trp-Paf] (peptide)
peptide: Ac-F[Orn]P[dCha]W[Phe(4-NH2)]
modifications: lactam (positions not given here); not fully specified (bridges); printed as Ac-Phe-[Orn-Pro-cha-Trp-Paf]
- IC50, enzyme release assay (human C5aR (CD88) [6]): 30 nM
- IC50 activity group, enzyme release assay (human C5aR (CD88) [4]): ≤ 50 nM

B7: Ph-CH2-CH2-CO-[Orn-Pro-cha-Trp-Nle] (peptide)
peptide: {Ph‑CH2‑CH2‑CO}-[Orn]P[dCha]W[Nle]
modifications: lactam 1-C
- EC50, agonistic activity, enzyme release assay (human C5aR (CD88) [5]): > 1430 nM

B8: Ac-Phe-[Orn-Pro-cha-Trp-Phe] (peptide)
peptide: Ac-F[Orn]P[dCha]WF
modifications: lactam (positions not given here); not fully specified (bridges); printed as Ac-Phe-[Orn-Pro-cha-Trp-Phe]
- IC50, enzyme release assay (human C5aR (CD88) [6]): 23 nM
- IC50 activity group, enzyme release assay (human C5aR (CD88) [4]): ≤ 50 nM
- EC50, agonistic activity, enzyme release assay (human C5aR (CD88) [5]): > 1430 nM

B9: Ac-Lys-Phe-[Orn-Pro-cha-Trp-Nle] (peptide)
peptide: Ac-KF[Orn]P[dCha]W[Nle]
modifications: lactam 3-C
SMILES: CCCC[C@@H]1NC(=O)[C@H](Cc2c[nH]c3ccccc23)NC(=O)[C@@H](CC2CCCCC2)NC(=O)[C@@H]2CCCN2C(=O)[C@@H](NC(=O)[C@H](Cc2ccccc2)NC(=O)[C@H](CCCCN)NC(C)=O)CCCNC1=O
- IC50 activity group, enzyme release assay (human C5aR (CD88) [4]): ≤ 50 nM
- EC50, agonistic activity, enzyme release assay (human C5aR (CD88) [5]): > 1430 nM

B10: Ac-Phe-[Orn-Pro-cha-Ala-Arg] (peptide)
peptide: Ac-F[Orn]P[dCha]AR
modifications: lactam (positions not given here); not fully specified (bridges); printed as Ac-Phe-[Orn-Pro-cha-Ala-Arg]
- IC50, functional assay (human C5aR (CD88) [6]): > 30000 nM
- IC50 activity group, enzyme release assay (human C5aR (CD88) [4]): > 2000 nM

B11: Ac-Phe-[Orn-Pro-ala-Trp-Arg] (peptide)
peptide: Ac-F[Orn]P[dA]WR
modifications: lactam (positions not given here); not fully specified (bridges); printed as Ac-Phe-[Orn-Pro-ala-Trp-Arg]
- IC50, functional assay (human C5aR (CD88) [6]): > 30000 nM
- IC50 activity group, enzyme release assay (human C5aR (CD88) [4]): > 2000 nM

B12: Ac-Phe-[Orn-Pro-cha-Trp-Eaf] (peptide)
peptide: Ac-F[Orn]P[dCha]W[AllylGly]
modifications: lactam (positions not given here); not fully specified (bridges); printed as Ac-Phe-[Orn-Pro-cha-Trp-Eaf]
- IC50 activity group, enzyme release assay (human C5aR (CD88) [4]): ≤ 10 nM
- EC50, agonistic activity, enzyme release assay (human C5aR (CD88) [5]): > 1430 nM

B13: Ac-Phe-Lys-Ala-Cha-Ala-Leu-ala-Tyr-OH (peptide)
peptide: Ac-FKA[Cha]AL[dA]Y-OH
SMILES: CC(=O)N[C@@H](Cc1ccccc1)C(=O)N[C@@H](CCCCN)C(=O)N[C@@H](C)C(=O)N[C@@H](CC1CCCCC1)C(=O)N[C@@H](C)C(=O)N[C@@H](CC(C)C)C(=O)N[C@H](C)C(=O)N[C@@H](Cc1ccc(O)cc1)C(=O)O
- IC50, functional assay as used in this application (human C5aR (CD88) [6]): 1300 nM
- IC50 activity group, enzyme release assay (human C5aR (CD88) [4]): ≤ 2000 nM

B14: Ac-Phe-[Orn-Pro-cha-Trp-Ala] (peptide)
peptide: Ac-F[Orn]P[dCha]WA
modifications: lactam (positions not given here); not fully specified (bridges); printed as Ac-Phe-[Orn-Pro-cha-Trp-Ala]
- IC50, functional assay (human C5aR (CD88) [6]): 5600 nM
- IC50 activity group, enzyme release assay (human C5aR (CD88) [4]): > 2000 nM
